Source: paper PMC4045858, “Biochemical Characterization of Human Gluconokinase and the Proposed Metabolic Impact of Gluconic Acid as Determined by Constraint Based Metabolic Network Analysis” (PLoS ONE, 2014)

Key:
purified protein [1] = substrate: Nc1ncnc2c1ncn2[C@@H]1O[C@H](COP(=O)(O)OP(=O)(O)OP(=O)(O)O)[C@@H](O)[C@H]1O; test: purified protein; type: biochemical, Homo sapiens; details: gluconate as fixed co-substrate, 0.65 mM NADP+, 100 mM phosphate, 40 mM NaCl, 2.5 mM MgCl2, pH 7.2, 0.25 µM enzyme
purified protein [2] = substrate: O=C(O)[C@H](O)[C@@H](O)[C@H](O)[C@H](O)CO; test: purified protein; type: biochemical, Homo sapiens; details: 1 mM ATP, 0.65 mM NADP+, 100 mM phosphate, 40 mM NaCl, 2.5 mM MgCl2, pH 7.2, 0.25 µM enzyme

B1: human GntK (gluconokinase isoform I, C9orf103) (Homo sapiens) (protein)
chain: MAAPGALLVMGVSGSGKSTVGALLASELGWKFYDADDYHPEENRRKMGKGIPLNDQDRIPWLCNLHDILLRDVASGQRVVLACSALKKTYRDILTQGKDGVALKCEESGKEAKQAEMQLLVVHLSGSFEVISGRLLKREGHFMPPELLQSQFETLEPPAAPENFIQISVDKNVSEIIATIMETLKMK
notes: dimer, also tetramer
Purified protein [1]
  Km: 343.8 ± 13.9 µM
  Vmax: 144 µM/min
  kcat: 9.5 ± 0.5 s⁻¹
  kcat/Km: 28000 ± 2000 M⁻¹ s⁻¹
Purified protein [2]
  Km: 106.4 ± 18.5 µM
  Vmax: 138 µM/min
  kcat: 9.3 ± 0.5 s⁻¹
  kcat/Km: 89000 ± 13000 M⁻¹ s⁻¹
